Experimental data as given in patent US20050142634A1, “Novel modulator of non-genomic activity of nuclear receptors (mnar) and uses thereof” (Wyeth, priority 2001, published 2005).

B1: mutant 9: MNAR mutant, C-terminal portion aa 595-1131 (protein, listed as Homo sapiens)
chain: PPPLACALQAFSLGQREDSLEVSSFCSEALVTCAALTHPRVPPLQPMGPTCPTPAPVPPPEAPSPFRAPPFHPPGPMPSVGSMPSAGPMPSAGPMPSAGPVPSARPGPPTTANHLGLSVPGLVSVPPRLLPGPENHRAGSNEDPILAPSGTPPPTIPPDETFGGRVPRPAFVHYDKEEASDVEISLESDSDDSVVIVPEGLPPLPPPPPSGATPPPIAPTGPPTASPPVPAKEEPEELPAAPGPLPPPPPPPPPVPGPVTLPPPQLVPEGTPGGGGPPALEEDLTVININSSDEEEEEEEEGEEEEEEEEEEEEDFEEEEEDEEEYFEEEEEEEEEFEEEFEEEEGELEEEEEEEDEEEEEELEEVEDLEFGTAGGEVEEGAPPPPTLPPALPPPESPPKVQPEPEPEPGLLLEVEEPGTEEERGADTAPTLAPEALPSQGEVEREGESPAAGPPPQELVEEEPSAPPTLLEEEPEDGSDKVQPPPETPAEEEMETETEAEALQEKEQDDTAAMLADFIDCPPDDEKPPPPSEPDS
B2: mutant 10: MNAR mutant aa 595-962 (protein, listed as Homo sapiens)
chain: PPPLACALQAFSLGQREDSLEVSSFCSEALVTCAALTHPRVPPLQPMGPTCPTPAPVPPPEAPSPFRAPPFHPPGPMPSVGSMPSAGPMPSAGPMPSAGPVPSARPGPPTTANHLGLSVPGLVSVPPRLLPGPENHRAGSNEDPILAPSGTPPPTIPPDETFGGRVPRPAFVHYDKEEASDVEISLESDSDDSVVIVPEGLPPLPPPPPSGATPPPIAPTGPPTASPPVPAKEEPEELPAAPGPLPPPPPPPPPVPGPVTLPPPQLVPEGTPGGGGPPALEEDLTVININSSDEEEEEEEEGEEEEEEEEEEEEDFEEEEEDEEEYFEEEEEEEEEFEEEFEEEEGELEEEEEEEDEEEEEELEEVED
B3: mutant 11: MNAR mutant aa 595-887 (protein, listed as Homo sapiens)
chain: PPPLACALQAFSLGQREDSLEVSSFCSEALVTCAALTHPRVPPLQPMGPTCPTPAPVPPPEAPSPFRAPPFHPPGPMPSVGSMPSAGPMPSAGPMPSAGPVPSARPGPPTTANHLGLSVPGLVSVPPRLLPGPENHRAGSNEDPILAPSGTPPPTIPPDETFGGRVPRPAFVHYDKEEASDVEISLESDSDDSVVIVPEGLPPLPPPPPSGATPPPIAPTGPPTASPPVPAKEEPEELPAAPGPLPPPPPPPPPVPGPVTLPPPQLVPEGTPGGGGPPALEEDLTVININSSD

test system: ER; assay: MNAR structural-functional analysis, ER-stimulated transcription in HepG2 cells; type: cell-based; details: MNAR deletion mutants transfected into HepG2 cells
Procedure: To delineate the regions of MNAR that are responsible for interaction with estrogen receptor and c-Src tyrosine kinase, we performed functional evaluation of MNAR deletion mutants (FIG. 12). A series of C-terminal truncations of MNAR was generated using specially designed oligonucleotides, by amplifying appropriate fragments and cloning them into appropriate expression vectors. These mutants were tested for their abilities to enhance ER-stimulated transcription when transfected into HepG2 cells.
At the C-terminus, MNAR contains a region rich in both proline and glutamic acid. To delineate the regions on MNAR responsible for interaction with estrogen receptors and c-src tyrosine kinase, a functional evaluation of MNAR deletion mutants was performed (FIG. 12). A series of C-terminal truncations of MNAR was generated using specially designed oligonucleotides, by amplifying appropriate fragments and cloning them into appropriate expression vectors. These mutants were tested for their abilities to enhance ER-stimulated transcription when transfected into HepG2 cells.

Row | Molecule | ability to enhance ER-stimulated transcription
1 | B1 | inactive
2 | B2 | inactive
3 | B3 | inactive
